In patent US20210147877A1 one finds Neutralization antibody titer data, which are given here for 2 substances.

Experiment in all cases: cell-based or functional assay
Experiment [1] concerns the target haploid virus AAV2/8 1:3 (AAV serotype 2; AAV serotype 8) (UniProt P03135).
The target in experiment [2] is haploid virus AAV2/8 1:1 (AAV serotype 2; AAV serotype 8) (UniProt P03135).
The target of experiment [3] is haploid virus AAV2/8 3:1 (AAV serotype 2; AAV serotype 8) (UniProt P03135).
Experiment [4] addresses AAV2 vector (parental AAV2 capsid) (AAV serotype 2) (UniProt P03135).
The target in experiment [5] is AAV8 vector (parental AAV8 capsid) (AAV serotype 8).

Some results are limits rather than exact numbers.

On to monoclonal antibody A20, for which the Neutralization antibody titer in experiment [1] was less than 2 titer; in experiment [2] it was 32 titer; in experiment [3], 2048 titer; in experiment [4], 512 titer; in experiment [5], less than 2 titer.
Take monoclonal antibody ADK8: the Neutralization antibody titer in experiment [1] is 1024 titer; in experiment [2], 512 titer; in experiment [3], 512 titer; in experiment [4], less than 2 titer; in experiment [5] it was 1024 titer.
